A short description of the data set: protein stability index of a GFP-peptide fusion (yeast GPS) (PSI 1-4); higher = more stable; sorted into four equal gates, so the index is relative within each strain. Put shortly:
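Each library plasmid carries Cherry plus GFP with a tiled 17-residue yeast protein peptide fused downstream, and the pooled library was carried in yeast. Mid-log cultures in leucine-free medium were sorted into four equal gates by GFP/Cherry ratio. Reads from Illumina sequencing of PCR-amplified plasmids from each gate were assigned to strains by barcodes. Per peptide, the protein stability index was computed as the summed products of gate read frequency and gate number.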

± gives the uncertainty stated by the source.

Turning to VRIDLGTIDKLQLELTI [RPO31], the protein stability index came out at 1.99 ± 0.049 (doa10∆), 2.21 ± 0.052 (pdr5∆), 2.5 ± 0.053 (san1∆) and 2.91 ± 0.042 (ubr1∆).
The corresponding values for QVLMDINTLNGGSSDTA [GAL11] are 3.29 ± 0.074, 3.22 ± 0.072, 3.15 ± 0.061 and 3.1 ± 0.061.
As to NKIKLNILKILSSLILK [SRB8], the protein stability index stood at 1.79 ± 0.072 (doa10∆), 1.73 ± 0.074 (pdr5∆) and 1.87 ± 0.053 (ubr1∆).
For QEDFEVVEEFTPVVLAT [RPS5], the protein stability index runs as follows: (doa10∆) 3.1 ± 0.091; (pdr5∆) 2.45 ± 0.059; (san1∆) 2.3 ± 0.046; (ubr1∆) 2.31 ± 0.042.
With SLLASKSTYRTPNFDDV [RIP1], the protein stability index runs as follows: (doa10∆) 2.78 ± 0.29; (ubr1∆) 3.49 ± 0.17.
In the case of ASSAVMNRRKIAMPKRR [YLR335W/NUP2], the protein stability index reads like this: (doa10∆) 1.19 ± 0.074; (pdr5∆) 1.3 ± 0.071; (san1∆) 1.23 ± 0.2; (ubr1∆) 1.16 ± 0.11.
For AFGGLNFGGGNNTTPSS [YJL041W/NSP1] the same measures were 1.32 ± 0.061, 1.29 ± 0.064, 1.46 ± 0.087 and 1.21 ± 0.13.
The corresponding values for DSLRKLYVDSESTSSTE [MTW1] are 2.86 ± 0.072, 3.51 ± 0.1, 3.16 ± 0.1 and 3 ± 0.068.
The corresponding values for DKLSGCYAPRPSAGPHK [RPS4A] are 2.2 ± 0.065, 1.96 ± 0.063, 1.76 ± 0.099 and 1.64 ± 0.041.
LADDLITKMLASDESLL [RPN2]: the protein stability index runs as follows: (doa10∆) 1.94 ± 0.11; (pdr5∆) 2.29 ± 0.14; (san1∆) 1.86 ± 0.14.
As to LWVFQAFTCFCIKKIME [SRB8], the protein stability index is 1.69 ± 0.044 (doa10∆), 1.52 ± 0.04 (pdr5∆), 1.27 ± 0.073 (san1∆) and 1.48 ± 0.037 (ubr1∆).
For LDNSKMDYHFIFSYLQF [RGR1] the same measures were 2.45 ± 0.061, 1.72 ± 0.056, 1.89 ± 0.047 and 1.8 ± 0.065.
The corresponding values for SKEDTLRLCLDIVPYFL [RPN1] are 1.92 ± 0.05, 1.92 ± 0.033, 1.58 ± 0.081 and 2.12 ± 0.057.
In turn, TSTKPSFSFGAPESMKS [YOR098C/NUP1] returned a protein stability index (doa10∆) of 2.97 ± 0.053, a protein stability index (pdr5∆) of 3.07 ± 0.062, a protein stability index (san1∆) of 3.15 ± 0.043 and a protein stability index (ubr1∆) of 3.1 ± 0.046.
For GLARKFHNMLQTLYTGD [SSN3] the same measures were 2.91 ± 0.24, 3.25 ± 0.1, 3.01 ± 0.077 and 2.79 ± 0.16.
For RPNLPTHNFKLSGVSNS [RGR1] the same measures were 1.72 ± 0.13, 1.49 ± 0.062, 1.85 ± 0.088 and 2.12 ± 0.054.
As for LAGMDVEDALDKDSTKE [FAS2], the protein stability index by setting is: (doa10∆) 3.43 ± 0.27; (pdr5∆) 3.72 ± 0.19.
With GNSERPSAVAGFINQKN [YIL149C/MLP2], the protein stability index is, setting by setting: (doa10∆) 3.31 ± 0.1; (pdr5∆) 3.29 ± 0.12; (san1∆) 2.93 ± 0.097; (ubr1∆) 3.03 ± 0.051.
For the sequence KYQKALHYLKKFKHIDD [SRP72], the protein stability index by setting is: (doa10∆) 2.04 ± 0.1; (pdr5∆) 2.96 ± 0.12; (san1∆) 2.57 ± 0.17; (ubr1∆) 2.31 ± 0.14.
The corresponding values for FKHISVKDFTSLGFNEV [RPO21] are 3.08 ± 0.21, 2.38 ± 0.12, 2 ± 0.14 and 2.25 ± 0.044.
For LNLDEIVACELILSGDT [YJL039C/NUP192] the same measures were 2.64 ± 0.08, 2.7 ± 0.084, 3.05 ± 0.096 and 2.6 ± 0.12.
Turning to RLAEVNLKDLNNVKQMV [RPO21], the protein stability index by setting is: (doa10∆) 2.77 ± 0.26; (san1∆) 2.9 ± 0.25; (ubr1∆) 3.08 ± 0.18.
Regarding YELYINKLTILGRDYPI [IRR1], the protein stability index is 1.31 ± 0.032 (doa10∆), 1.57 ± 0.038 (pdr5∆), 1.44 ± 0.055 (san1∆) and 2.04 ± 0.032 (ubr1∆).
The corresponding values for TIYNNIREGQNQKIPDN [SIR3] are 2.96 ± 0.05, 3.18 ± 0.064, 2.98 ± 0.056 and 3.02 ± 0.045.
On to KLKHMVLDKMHARARGP [RET1], for which the protein stability index came to 2.69 ± 0.094 (doa10∆), 2.84 ± 0.084 (pdr5∆), 2.47 ± 0.067 (san1∆) and 2.65 ± 0.06 (ubr1∆).
For PTQTVAELDLMSGILHC [RPN6] the same measures were 2.8 ± 0.06, 3.07 ± 0.054, 2.95 ± 0.047 and 3.1 ± 0.051.
The corresponding values for YSKIKHLGLDDPQDVFN [SIR2] are 2.77 ± 0.18, 3.22 ± 0.19, 3.3 ± 0.14 and 3.24 ± 0.096.
Consider MCQNPMQKPVPFVPVLD [FAS1], for which the protein stability index came out at 1.47 ± 0.039 (doa10∆), 1.54 ± 0.034 (pdr5∆), 1.29 ± 0.061 (san1∆) and 1.52 ± 0.031 (ubr1∆).
For DLQRTQTLSEKEYQCSA [YIL149C/MLP2] the same measures were 2.98 ± 0.1, 2.97 ± 0.091, 3.11 ± 0.069 and 2.96 ± 0.069.
In the case of TFGKPEEEDSILSLEQS [YCS4], the protein stability index (doa10∆) was determined as 3.19 ± 0.091, the protein stability index (pdr5∆) was 3.19 ± 0.074, the protein stability index (san1∆) was determined as 3.14 ± 0.057 and the protein stability index (ubr1∆) was found to be 3.13 ± 0.095.
The corresponding values for GENDDDTLDGDLMDDMS [RPN3] are 2.73 ± 0.17, 2.7 ± 0.075, 2.11 ± 0.12 and 2.15 ± 0.1.
The corresponding values for LYVLPSFNIPRLTFKPW [YMR129W/POM152] are 2.2 ± 0.12, 1.7 ± 0.096, 1.69 ± 0.18 and 1.54 ± 0.096.
The corresponding values for MGSRRYDSRTTIFSPEG [PRE9] are 3.36 ± 0.2, 3.01 ± 0.17, 2.89 ± 0.19 and 3.06 ± 0.15.
As for DSIPYPQIVKLFDISRE [ECM29], the protein stability index worked out at 1.65 ± 0.065 (doa10∆), 1.3 ± 0.057 (pdr5∆), 1.23 ± 0.073 (san1∆) and 2.08 ± 0.039 (ubr1∆).
The corresponding values for RLNNVFVIGEQGKPYIS [RPS4A] are 2.66 ± 0.11, 3.02 ± 0.094, 3.1 ± 0.11 and 2.12 ± 0.057.
The corresponding values for ALDFRNVSIVANYIKER [SMC4] are 1.51 ± 0.069, 2.04 ± 0.058, 1.51 ± 0.11 and 1.82 ± 0.058.
On to RYIWRSLKDLSSLRNQE [RPN3], for which the protein stability index was found to be 2.77 ± 0.14 (doa10∆) and 2.85 ± 0.094 (san1∆).

The values are drawn from the supplement of paper PMC9732359.
